Positions count from the first letter of the chain named.

This note sets out measurements from EP1516629B1.

T1: human CD11a (human) (UniProt P20701)
T1 sequence (looked up): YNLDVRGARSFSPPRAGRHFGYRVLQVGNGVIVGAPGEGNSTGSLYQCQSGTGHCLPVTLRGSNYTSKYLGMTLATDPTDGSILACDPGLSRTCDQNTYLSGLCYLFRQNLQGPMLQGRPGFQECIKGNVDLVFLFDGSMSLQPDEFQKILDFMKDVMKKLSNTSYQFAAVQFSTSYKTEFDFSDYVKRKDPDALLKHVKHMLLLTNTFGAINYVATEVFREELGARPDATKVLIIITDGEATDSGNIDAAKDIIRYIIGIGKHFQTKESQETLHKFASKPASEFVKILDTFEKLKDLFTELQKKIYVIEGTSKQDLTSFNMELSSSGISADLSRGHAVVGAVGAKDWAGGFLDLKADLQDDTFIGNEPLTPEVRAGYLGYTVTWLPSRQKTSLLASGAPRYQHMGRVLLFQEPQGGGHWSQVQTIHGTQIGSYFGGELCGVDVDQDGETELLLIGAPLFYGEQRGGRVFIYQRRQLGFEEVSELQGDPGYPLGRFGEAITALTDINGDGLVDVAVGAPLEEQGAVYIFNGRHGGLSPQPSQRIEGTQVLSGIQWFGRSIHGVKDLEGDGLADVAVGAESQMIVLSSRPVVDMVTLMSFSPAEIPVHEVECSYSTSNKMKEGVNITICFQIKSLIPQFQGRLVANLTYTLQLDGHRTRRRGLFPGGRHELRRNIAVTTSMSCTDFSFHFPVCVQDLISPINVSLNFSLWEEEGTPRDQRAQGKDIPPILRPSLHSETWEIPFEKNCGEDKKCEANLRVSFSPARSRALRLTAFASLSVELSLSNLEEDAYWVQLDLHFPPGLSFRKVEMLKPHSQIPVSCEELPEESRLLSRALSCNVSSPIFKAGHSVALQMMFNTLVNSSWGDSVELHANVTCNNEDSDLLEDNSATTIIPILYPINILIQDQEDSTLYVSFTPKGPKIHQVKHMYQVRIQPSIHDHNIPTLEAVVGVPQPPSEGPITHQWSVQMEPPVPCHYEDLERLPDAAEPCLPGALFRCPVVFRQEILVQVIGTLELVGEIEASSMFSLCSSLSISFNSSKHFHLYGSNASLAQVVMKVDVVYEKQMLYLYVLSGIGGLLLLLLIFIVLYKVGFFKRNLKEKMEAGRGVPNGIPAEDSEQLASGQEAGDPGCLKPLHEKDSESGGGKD

T2: rhesus CD11a (rhesus) (UniProt H9Z8N3)
T2 sequence: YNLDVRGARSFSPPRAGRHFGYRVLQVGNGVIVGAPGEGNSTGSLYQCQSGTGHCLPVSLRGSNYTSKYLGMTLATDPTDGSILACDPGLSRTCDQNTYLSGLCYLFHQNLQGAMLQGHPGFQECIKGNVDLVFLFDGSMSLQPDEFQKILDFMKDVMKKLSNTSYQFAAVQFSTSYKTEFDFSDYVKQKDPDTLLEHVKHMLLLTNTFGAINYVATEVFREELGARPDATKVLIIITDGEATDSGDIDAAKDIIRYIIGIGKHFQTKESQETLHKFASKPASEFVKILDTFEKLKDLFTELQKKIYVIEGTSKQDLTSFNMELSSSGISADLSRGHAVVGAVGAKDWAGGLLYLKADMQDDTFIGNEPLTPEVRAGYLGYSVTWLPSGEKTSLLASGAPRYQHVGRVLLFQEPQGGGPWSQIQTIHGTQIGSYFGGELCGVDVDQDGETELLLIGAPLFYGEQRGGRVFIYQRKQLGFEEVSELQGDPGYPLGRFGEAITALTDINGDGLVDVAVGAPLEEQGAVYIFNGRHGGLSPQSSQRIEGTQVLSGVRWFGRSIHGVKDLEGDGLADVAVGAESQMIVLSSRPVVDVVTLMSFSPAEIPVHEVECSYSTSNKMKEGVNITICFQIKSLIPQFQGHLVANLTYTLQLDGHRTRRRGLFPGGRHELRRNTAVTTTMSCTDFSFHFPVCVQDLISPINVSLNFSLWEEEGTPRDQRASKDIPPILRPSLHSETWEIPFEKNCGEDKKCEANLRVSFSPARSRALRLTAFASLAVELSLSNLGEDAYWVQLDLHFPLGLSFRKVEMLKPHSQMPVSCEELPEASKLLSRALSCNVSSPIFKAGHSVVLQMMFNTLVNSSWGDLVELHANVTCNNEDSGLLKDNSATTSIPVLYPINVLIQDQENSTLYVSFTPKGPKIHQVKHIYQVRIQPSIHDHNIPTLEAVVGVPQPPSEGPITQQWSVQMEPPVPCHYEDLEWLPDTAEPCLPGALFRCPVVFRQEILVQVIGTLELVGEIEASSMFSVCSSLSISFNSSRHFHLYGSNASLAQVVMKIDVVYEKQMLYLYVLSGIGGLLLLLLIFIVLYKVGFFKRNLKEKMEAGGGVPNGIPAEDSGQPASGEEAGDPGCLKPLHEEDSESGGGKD

B1: SerL50Ala variant IgG1 (antibody, V domains shown)
VH: EVQLVESGGGLVQPGGSLRLSCAASGYSFTGHWMNWVRQAPGKGLEWVGMIHPSDSETRYNQKFKDRFTISVDKSKNTLYLQMNSLRAEDTAVYYCARGIYFYGTTYFDYWGQGTLVTVSS
VL: DIQMTQSPSSLSASVGDRVTITCRASKTISKYLAWYQQKPGKAPKLLIYAGSTLQSGVPSRFSGSGSGTDFTLTISSLQPEDFATYYCQQHNEYPLTFGQGTKVEIKR
B2: H2C9 variant IgG1 (antibody, V domains shown)
VH: B1 VH with H52A, S54A, D55A, E57N
VL: DIQMTQSPSSLSASVGDRVTITCRASKTISKYLAWYQQKPGKAPKLLIYSGSTLQSGVPSRFSGSGSGTDFTLTISSLQPEDFATYYCQQHNEYPLTFGQGTKVEIK
B3: ThrL53Ala variant IgG1 (antibody, V domains shown)
VH: B1 VH
VL: B1 VL with A50S, T53A
B4: GluL93Ala variant IgG1 (antibody, V domains shown)
VH: B1 VH
VL: B1 VL with A50S, E93A
B5: SerL52Ala variant IgG1 (antibody, V domains shown)
VH: B1 VH
VL: B1 VL with A50S, S52A
B6: SerH55Ala variant IgG1 (antibody, V domains shown)
VH: B1 VH with S56A
VL: B2 VL
B7: AsnL92Ala variant IgG1 (antibody, V domains shown)
VH: B1 VH
VL: B1 VL with A50S, N92A
B8: AspH54Gln variant IgG1 (antibody, V domains shown)
VH: B1 VH with D55Q
VL: B2 VL
B9: GlyH31Ala variant IgG1 (antibody, V domains shown)
VH: B1 VH with G31A
VL: B2 VL
B10: ThrH30Ala variant IgG1 (antibody, V domains shown)
VH: B1 VH with T30A
VL: B2 VL
B11: AspH54Ala variant IgG1 (antibody, V domains shown)
VH: B1 VH with D55A
VL: B2 VL
B12: GluH56Ala variant IgG1 (antibody, V domains shown)
VH: B1 VH with E57A
VL: B2 VL
B13: H2C10 variant IgG1 (antibody, V domains shown)
VH: B1 VH with H52A, S54A, D55A, E57S
VL: B2 VL
B14: H2A1 variant IgG1 (antibody, V domains shown)
VH: B1 VH with H52A, S54A
VL: B2 VL
B15: H2 variant IgG1 (antibody, V domains shown)
VH: B1 VH with H52A, S54A, S56A
VL: B2 VL
B16: H2A2 variant IgG1 (antibody, V domains shown)
VH: B1 VH with S54A, S56A
VL: B2 VL
B17: H2C7 variant IgG1 (antibody, V domains shown)
VH: B1 VH with H52A, S54A, D55A, E57A
VL: B2 VL
B18: SerH53Ala variant IgG1 (antibody, V domains shown)
VH: B1 VH with S54A
VL: B2 VL
B19: HisH52Ala variant IgG1 (antibody, V domains shown)
VH: B1 VH with H52A
VL: B2 VL
B20: H2A3 variant IgG1 (antibody, V domains shown)
VH: B1 VH with H52A, S56A
VL: B2 VL
B21: AspH54Asn variant IgG1 (antibody, V domains shown)
VH: B1 VH with D55N
VL: B2 VL
B22: H2C5 variant IgG1 (antibody, V domains shown)
VH: B1 VH with H52A, S54A, D55N, E57N
VL: B2 VL

The first assay concerns the target T1, human CD11a (human). Description: FACScan, Jurkat cells.
Molecule B1 had a Var.EC50/HuIgG1 EC50 of 1.2.

B2 had a Var.EC50/HuIgG1 EC50 of 34.3.

Consider B3, for which the Var.EC50/HuIgG1 EC50 turned out to be 0.9.

B4 yielded a Var.EC50/HuIgG1 EC50 of 1.7.

The molecule B5 yielded a Var.EC50/HuIgG1 EC50 of 1.1.

On to B6, for which the Var.EC50/HuIgG1 EC50 worked out at 1.3.

In the case of B7, the Var.EC50/HuIgG1 EC50 came to 3.3.

With B8, the Variant EC50/HulgG1 EC50 came to 20.

Take B9: the Var.EC50/HuIgG1 EC50 came to 1.2.

With B10, the Var.EC50/HuIgG1 EC50 is 1.7.

As for B11, the Var.EC50/HuIgG1 EC50 was 147 and the Variant EC50/HulgG1 EC50 amounted to 147.

For B12, the Var.EC50/HuIgG1 EC50 is 4.

The molecule B13 returned a Var.EC50/HuIgG1 EC50 of 14.2.

Molecule B14 yielded a Var.EC50/HuIgG1 EC50 of 10.8.

On to B15, for which the Var.EC50/HuIgG1 EC50 was determined as 14.1.

On to B16, for which the Var.EC50/HuIgG1 EC50 was 1.9.

Regarding B17, the Var.EC50/HuIgG1 EC50 amounted to 2.4.

In the case of B18, the Var.EC50/HuIgG1 EC50 is 1.8.

As to B19, the Var.EC50/HuIgG1 EC50 stood at 1.5.

B20 gave a Var.EC50/HuIgG1 EC50 of 4.6.

Turning to B21, the Variant EC50/HulgG1 EC50 amounted to 26.

Turning to B22, the Var.EC50/HuIgG1 EC50 was determined as 46.

A further assay concerns the target T2, rhesus CD11a (rhesus). Description: binding to rhesus peripheral blood lymphocytes.
As for B1, the Var.EC50/HuIgG1 EC50 came out at 2.7.

B2 registered a Var.EC50/HuIgG1 EC50 of 0.22.

For B3, the Var.EC50/HuIgG1 EC50 was 0.7.

On to B4, for which the Var.EC50/HuIgG1 EC50 amounted to 2.9.

On to B5, for which the Var.EC50/HuIgG1 EC50 stood at 13.3.

B6 yielded a Var.EC50/HuIgG1 EC50 of 1.3.

In turn, B7 showed a Var.EC50/HuIgG1 EC50 of 3.3.

Consider B8, for which the Variant EC50/HulgG1 EC50 stood at 4.4.

In the case of B9, the Var.EC50/HuIgG1 EC50 turned out to be 2.4.

In turn, B10 displayed a Var.EC50/HuIgG1 EC50 of 1.3.

On to B11, for which the Var.EC50/HuIgG1 EC50 turned out to be 0.3, the Variant EC50/HulgG1 EC50 worked out at 0.3 and the fold improvement in binding over HuIgG1 was determined as 3 fold.

B12 yielded a Var.EC50/HuIgG1 EC50 of 0.3 and a fold improvement in binding over HuIgG1 of 3 fold.

B13 displayed a Var.EC50/HuIgG1 EC50 of 0.22.

The molecule B14 had a Var.EC50/HuIgG1 EC50 of 0.013 and a fold improvement in binding over HuIgG1 of 77 fold.

The molecule B15 gave a Var.EC50/HuIgG1 EC50 of 0.055 and a fold better binding than HuIgG1 of 18 fold.

B16 registered a Var.EC50/HuIgG1 EC50 of 1.1.

The molecule B17 yielded a Var.EC50/HuIgG1 EC50 of 1.03.

As for B18, the Var.EC50/HuIgG1 EC50 came out at 0.7.

The molecule B19 showed a Var.EC50/HuIgG1 EC50 of 0.7.

With B20, the Var.EC50/HuIgG1 EC50 came out at 1.3.

On to B21, for which the Variant EC50/HulgG1 EC50 came to 0.1 and the fold improvement in binding over HuIgG1 is 10 fold.

With B22, the Var.EC50/HuIgG1 EC50 was found to be 0.11.
